Several values for one entry are separate records, joined by “and”; a condition that tells them apart may be missing. Identical values can stand only once.
B1: Fab (Light)-Knob+Fab (Heavy)-Hole-CEA (210) (bispecific antibody, human IgG4 S228P, kappa, F234A L235A)
chain: QAVVTQESALTTSPGETVTLTCRSSTGAVTTSNYANWVQEKPDHLFTGLIGGTNKRAPGVPARFSGSLIGDKAALTITGAQTEDEAIYFCALWYSNLWVFGGGTKVEIKRTVAAPSVFIFPPSDEQLKSGTASVVCLLNNFYPREAKVQWKVDNALQSGNSQESVTEQDSKDSTYSLSSTLTLSKADYEKHKVYACEVTHQGLSSPVTKSFNRGECESKYGPPCPPCPAPEAAGGPSVFLFPPKPKDTLMISRTPEVTCVVVDVSQEDPEVQFNWYVDGVEVHNAKTKPREEQFNSTYRVVSVLTVLHQDWLNGKEYKCKVSNKGLPSSIEKTISKAKGQPREPQVYTLPPCQEEMTKNQVSLWCLVKGFYPSDIAVEWESNGQPENNYKTTPPVLDSDGSFFLYSRLTVDKSRWQEGNVFSCSVMHEALHNHYTQKSLSLSL
heavy: EVKLLESGGGLVQPKGSLKLSCAASGFTFNTYAMNWVRQAPGKGLEWVARIRSKYNNYATYYADSVKDRFTISRDDSQSILYLQMNNLKTEDTAMYYCVRHGNFGNSYVSWFAYWGQGTLVTVSSASTKGPSVFPLAPCSRSTSESTAALGCLVKDYFPEPVTVSWNSGALTSGVHTFPAVLQSSGLYSLSSVVTVPSSSLGTKTYTCNVDHKPSNTKVDKRVESKYGPPCPPCPAPEAAGGPSVFLFPPKPKDTLMISRTPEVTCVVVDVSQEDPEVQFNWYVDGVEVHNAKTKPREEQFNSTYRVVSVLTVLHQDWLNGKEYKCKVSNKGLPSSIEKTISKAKGQPREPQVCTLPPSQEEMTKNQVSLSCAVKGFYPSDIAVEWESNGQPENNYKTTPPVLDSDGSFFLVSRLTVDKSRWQEGNVFSCSVMHEALHNRFTQKSLSLSLGGGGSGGGGSEVQLVESGGGFVQAGESLTLSCTSSTLTFTPYRMAWYRQAPGKQRDLVADISSGDGRTTNYADFAKGRFTISRDNIKNTVFLRMTNLKPEDTAVYYCNTFVSFVGIARSWGQGTQVTVSS
notes: Two-chain format; human IgG4 knob-into-hole Fc; also called CEA-CD3 bispecific antibody 210
B2: 308 (TA3), configuration of FIG. 1X (bispecific antibody, IgG4)
heavy: EVQLVESGGGLVQPGGSLRLSCAASGYSFTGYTMNWVRQAPGKGLEWVALINPYKGVSTYNQKFKDRFTISVDKSKNTAYLQMNSLRAEDTAVYYCARSGYYGDSDWYFDVWGQGTLVTVSSASTKGPSVFPLAPCSRSTSESTAALGCLVKDYFPEPVTVSWNSGALTSGVHTFPAVLQSSGLYSLSSVVTVPSSSLGTKTYTCNVDHKPSNTKVDKRVESKYGPPCPPCPAPEAAGGPSVFLFPPKPKDTLMISRTPEVTCVVVDVSQEDPEVQFNWYVDGVEVHNAKTKPREEQFNSTYRVVSVLTVLHQDWLNGKEYKCKVSNKGLPSSIEKTISKAKGQPREPQVYTLPPCQEEMTKNQVSLWCLVKGFYPSDIAVEWESNGQPENNYKTTPPVLDSDGSFFLYSRLTVDKSRWQEGNVFSCSVMHEALHNHYTQKSLSLSLGGGGSGGGGSEVQLVESGGGFVQAGESLTLSCTSSTLTFTPYRMAWYRQAPGKQRDLVADISSGDGRTTNYADFAKGRFTISRDNIKNTVFLRMTNLKPEDTAVYYCNTFVSFVGIARSWGQGTQVTVSS
chain: ESKYGPPCPPCPAPEAAGGPSVFLFPPKPKDTLMISRTPEVTCVVVDVSQEDPEVQFNWYVDGVEVHNAKTKPREEQFNSTYRVVSVLTVLHQDWLNGKEYKCKVSNKGLPSSIEKTISKAKGQPREPQVCTLPPSQEEMTKNQVSLSCAVKGFYPSDIAVEWESNGQPENNYKTTPPVLDSDGSFFLVSRLTVDKSRWQEGNVFSCSVMHEALHNRFTQKSLSLSL
light: DIQMTQSPSSLSASVGDRVTITCRASQDIRNYLNWYQQKPGKAPKLLIYYTSRLESGVPSRFSGSGSGTDYTLTISSLQPEDFATYYCQQGNTLPWTFGQGTKVEIK
notes: chains put together from parts; IgG4, kappa; not shown: kappa light chain constant domain (CL)
B3: Knob-Fab+CEA-Hole (108) (bispecific antibody, human IgG4 S228P, kappa, F234A L235A)
heavy: ESKYGPPCPPCPAPEAAGGPSVFLFPPKPKDTLMISRTPEVTCVVVDVSQEDPEVQFNWYVDGVEVHNAKTKPREEQFNSTYRVVSVLTVLHQDWLNGKEYKCKVSNKGLPSSIEKTISKAKGQPREPQVYTLPPCQEEMTKNQVSLWCLVKGFYPSDIAVEWESNGQPENNYKTTPPVLDSDGSFFLYSRLTVDKSRWQEGNVFSCSVMHEALHNHYTQKSLSLSLGGGGSGGGGSEVKLLESGGGLVQPKGSLKLSCAASGFTFNTYAMNWVRQAPGKGLEWVARIRSKYNNYATYYADSVKDRFTISRDDSQSILYLQMNNLKTEDTAMYYCVRHGNFGNSYVSWFAYWGQGTLVTVSSASTKGPSVFPLAPCSRSTSESTAALGCLVKDYFPEPVTVSWNSGALTSGVHTFPAVLQSSGLYSLSSVVTVPSSSLGTKTYTCNVDHKPSNTKVDKRV
chain: EVQLVESGGGFVQAGESLTLSCTSSTLTFTPYRMAWYRQAPGKQRDLVADISSGDGRTTNYADFAKGRFTISRDNIKNTVFLRMTNLKPEDTAVYYCNTFVSFVGIARSWGQGTQVTVSSESKYGPPCPPCPAPEAAGGPSVFLFPPKPKDTLMISRTPEVTCVVVDVSQEDPEVQFNWYVDGVEVHNAKTKPREEQFNSTYRVVSVLTVLHQDWLNGKEYKCKVSNKGLPSSIEKTISKAKGQPREPQVCTLPPSQEEMTKNQVSLSCAVKGFYPSDIAVEWESNGQPENNYKTTPPVLDSDGSFFLVSRLTVDKSRWQEGNVFSCSVMHEALHNRFTQKSLSLSL
light: QAVVTQESALTTSPGETVTLTCRSSTGAVTTSNYANWVQEKPDHLFTGLIGGTNKRAPGVPARFSGSLIGDKAALTITGAQTEDEAIYFCALWYSNLWVFGGGTKVEIKRTVAAPSVFIFPPSDEQLKSGTASVVCLLNNFYPREAKVQWKVDNALQSGNSQESVTEQDSKDSTYSLSSTLTLSKADYEKHKVYACEVTHQGLSSPVTKSFNRGEC
notes: Anti-CD3 TA1 Fab + anti-CEA VHH C17 on human IgG4 knob-into-hole Fc
B4: Knob-Fab+Hole-CEA (109) (bispecific antibody, human IgG4 S228P, kappa, F234A L235A)
heavy: ESKYGPPCPPCPAPEAAGGPSVFLFPPKPKDTLMISRTPEVTCVVVDVSQEDPEVQFNWYVDGVEVHNAKTKPREEQFNSTYRVVSVLTVLHQDWLNGKEYKCKVSNKGLPSSIEKTISKAKGQPREPQVYTLPPCQEEMTKNQVSLWCLVKGFYPSDIAVEWESNGQPENNYKTTPPVLDSDGSFFLYSRLTVDKSRWQEGNVFSCSVMHEALHNHYTQKSLSLSLGGGGSGGGGSEVKLLESGGGLVQPKGSLKLSCAASGFTFNTYAMNWVRQAPGKGLEWVARIRSKYNNYATYYADSVKDRFTISRDDSQSILYLQMNNLKTEDTAMYYCVRHGNFGNSYVSWFAYWGQGTLVTVSSASTKGPSVFPLAPCSRSTSESTAALGCLVKDYFPEPVTVSWNSGALTSGVHTFPAVLQSSGLYSLSSVVTVPSSSLGTKTYTCNVDHKPSNTKVDKRV
chain: ESKYGPPCPPCPAPEAAGGPSVFLFPPKPKDTLMISRTPEVTCVVVDVSQEDPEVQFNWYVDGVEVHNAKTKPREEQFNSTYRVVSVLTVLHQDWLNGKEYKCKVSNKGLPSSIEKTISKAKGQPREPQVCTLPPSQEEMTKNQVSLSCAVKGFYPSDIAVEWESNGQPENNYKTTPPVLDSDGSFFLVSRLTVDKSRWQEGNVFSCSVMHEALHNRFTQKSLSLSLGGGGSGGGGSEVQLVESGGGFVQAGESLTLSCTSSTLTFTPYRMAWYRQAPGKQRDLVADISSGDGRTTNYADFAKGRFTISRDNIKNTVFLRMTNLKPEDTAVYYCNTFVSFVGIARSWGQGTQVTVSS
light: QAVVTQESALTTSPGETVTLTCRSSTGAVTTSNYANWVQEKPDHLFTGLIGGTNKRAPGVPARFSGSLIGDKAALTITGAQTEDEAIYFCALWYSNLWVFGGGTKVEIKRTVAAPSVFIFPPSDEQLKSGTASVVCLLNNFYPREAKVQWKVDNALQSGNSQESVTEQDSKDSTYSLSSTLTLSKADYEKHKVYACEVTHQGLSSPVTKSFNRGEC
notes: as for B3
B5: Fab (Light)-Knob-CEA+Fab (Heavy)-Hole (209) (bispecific antibody, human IgG4 S228P, kappa, F234A L235A)
chain: QAVVTQESALTTSPGETVTLTCRSSTGAVTTSNYANWVQEKPDHLFTGLIGGTNKRAPGVPARFSGSLIGDKAALTITGAQTEDEAIYFCALWYSNLWVFGGGTKVEIKRTVAAPSVFIFPPSDEQLKSGTASVVCLLNNFYPREAKVQWKVDNALQSGNSQESVTEQDSKDSTYSLSSTLTLSKADYEKHKVYACEVTHQGLSSPVTKSFNRGECESKYGPPCPPCPAPEAAGGPSVFLFPPKPKDTLMISRTPEVTCVVVDVSQEDPEVQFNWYVDGVEVHNAKTKPREEQFNSTYRVVSVLTVLHQDWLNGKEYKCKVSNKGLPSSIEKTISKAKGQPREPQVYTLPPCQEEMTKNQVSLWCLVKGFYPSDIAVEWESNGQPENNYKTTPPVLDSDGSFFLYSRLTVDKSRWQEGNVFSCSVMHEALHNHYTQKSLSLSLGGGGSGGGGSEVQLVESGGGFVQAGESLTLSCTSSTLTFTPYRMAWYRQAPGKQRDLVADISSGDGRTTNYADFAKGRFTISRDNIKNTVFLRMTNLKPEDTAVYYCNTFVSFVGIARSWGQGTQVTVSS
heavy: EVKLLESGGGLVQPKGSLKLSCAASGFTFNTYAMNWVRQAPGKGLEWVARIRSKYNNYATYYADSVKDRFTISRDDSQSILYLQMNNLKTEDTAMYYCVRHGNFGNSYVSWFAYWGQGTLVTVSSASTKGPSVFPLAPCSRSTSESTAALGCLVKDYFPEPVTVSWNSGALTSGVHTFPAVLQSSGLYSLSSVVTVPSSSLGTKTYTCNVDHKPSNTKVDKRVESKYGPPCPPCPAPEAAGGPSVFLFPPKPKDTLMISRTPEVTCVVVDVSQEDPEVQFNWYVDGVEVHNAKTKPREEQFNSTYRVVSVLTVLHQDWLNGKEYKCKVSNKGLPSSIEKTISKAKGQPREPQVCTLPPSQEEMTKNQVSLSCAVKGFYPSDIAVEWESNGQPENNYKTTPPVLDSDGSFFLVSRLTVDKSRWQEGNVFSCSVMHEALHNRFTQKSLSLSL
notes: Two-chain format; human IgG4 knob-into-hole Fc

Assays:
[1] = biological target: T1, human CD3 on Jurkat cells (human, UniProt P07766 23-207; P04234 22-171; P09693 23-182); experiment: FACS, Jurkat cells;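 note: flow cytometric binding of bispecific antibodies to Jurkat T cells, threefold serial dilutions incubated half an hour in the cold, EC50 taken from the fitted binding curve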
T1 construct: whole, on cells; CD3 complex as on Jurkat (Clone E6-1) cells; also called CD3 expressing cells (Jurkat)
Description: The binding of the bispecific antibodies was tested on the CA expressing human lung adenocarcinoma cell line (H1573) and the CD3 expressing immortalized T lymphocyte line (Jurkat). The steps are as follows: the cells were harvested, counted, and resuspended in FACS buffer (PBS containing 0.1% BSA) at 2×10⁶ cells/ml. 100 μl of cell suspension was incubated in a V-bottom 96-well plate at 4° C. with 3-fold serial dilutions of bispecific antibodies (20 μg/ml-0.009 μg/ml) for 30 minutes; washed twice with pre-cooled FACS buffer. […] GraphPadPrism was used to obtain the binding curve.

[2] = biological target: T2, human CD3ε/δ (ACRO systems, CDD-H52W1) (human, UniProt P07766 23-126; P04234 22-105); experiment: BLI, antibody captured, antigen in solution;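 note: bispecific antibodies captured on AHIC biosensors to a 1.5 nm loading signal, in PBST with 0.02% detergent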
T2 construct: Bought protein; also called human CD3ϵ/CD3δ; human CD3 epsilon/delta antigen
Description: The bispecific antibodies were diluted to 5 ag/ml, and 1.5 nm protein was coupled to the surface of the AHIC sensor chip through 0.02% PBST.

Row | Binder | EC50 [1] | Kd [2] [nM] | koff [2] [s⁻¹] | kon [2] [M⁻¹ s⁻¹]
1 | B1 | 2.08 µg/mL and 16 nM | 2.83 | 0.000689 | 243000
2 | B2 | 4.59 µg/mL and 35.3 nM | 3.01 | 0.000997 | –
3 | B3 | 5.53 µg/mL and 42.5 nM | 1.79 | 0.00047 | 262000
4 | B4 | 12.1 µg/mL and 93 nM | 1.67 | 0.000485 | 291000
5 | B5 | 0.866 µg/mL and 6.66 nM | 2.01 | 0.000338 | 168000

From patent US20240400715A1 (VIBRANT PHARMA, published 2024)
